What is called EC50 is the concentration needed to bring the measured effect to its halfway point.

For one experiment, the target named is T1, GLP-1R (Homo sapiens, UniProt P43220).
T1 construct: expressed in transfected cells; host or cells: CHO-K1
Put plainly: Determination of GLP-1 activity: cAMP chemiluminescence (RLU) in CHO-K1 cell line stably expressing GLP-1R. The class given is cell-based. The settings on record: read-out: GLP-1 activity [EC50 (pmol)]. As to the method: (§1) GLP-1R, under the stimulation of its specific agonist, can activate the intracellular adenylate cyclase pathway, and increase the level of cAMP, finally leading to the generation and release of insulin. The stimulation of the cell lines stably transfected with GLP-1R by the agonist to be tested can lead to rapid increase in the intracellular cAMP level, and the relative light units (RLUs) after stimulating the cells at each dose are determined by chemiluminescence method to calculate the EC50 of the agonist. This method for determining activity is commonly used for GLP-1 receptor agonist activity analysis at home and abroad.
CHO-K1 cell line stably expressing GLP-1R was stimulated with the agonist at different concentrations. The EC50 value of the agonist was calculated by determining the relative light units after stimulating the cells at each dose.

Another experiment deals with T2, GLP-2R (Homo sapiens, UniProt O95838).
T2 construct: expressed in transfected cells; host or cells: CHO-K1
T2 sequence (O95838 1-553): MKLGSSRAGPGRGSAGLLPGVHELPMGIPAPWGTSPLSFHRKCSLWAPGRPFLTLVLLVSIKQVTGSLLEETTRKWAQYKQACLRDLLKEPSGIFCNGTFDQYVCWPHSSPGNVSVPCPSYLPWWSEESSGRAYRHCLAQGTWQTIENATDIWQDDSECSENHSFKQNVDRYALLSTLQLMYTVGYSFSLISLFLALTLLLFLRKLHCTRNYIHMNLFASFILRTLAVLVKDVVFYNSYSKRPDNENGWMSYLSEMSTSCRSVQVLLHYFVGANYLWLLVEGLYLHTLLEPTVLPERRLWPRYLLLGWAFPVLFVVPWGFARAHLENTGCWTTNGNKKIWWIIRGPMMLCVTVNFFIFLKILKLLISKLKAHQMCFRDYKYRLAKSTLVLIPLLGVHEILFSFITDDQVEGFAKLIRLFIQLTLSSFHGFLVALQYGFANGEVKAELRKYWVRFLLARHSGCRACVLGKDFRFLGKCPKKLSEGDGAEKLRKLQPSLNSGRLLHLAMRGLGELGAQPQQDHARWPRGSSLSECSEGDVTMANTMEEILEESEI
Put plainly: Determination of GLP-2 activity: cAMP chemiluminescence (RLU) in CHO-K1 cell line stably expressing GLP-2R. Format: cell-based. The settings on record: read-out: GLP-2 activity [EC50 (nmol)]. The method, then: as §1, with “GLP-2R, under” for “GLP-1R, under”, “for GLP-2” for “for GLP-1”
CHO-K1 cell line stably expressing GLP-2R was stimulated with the agonist at different concentrations. The EC50 value of the agonist was calculated by determining the relative light units after stimulating the cells at each dose.

The target in experiment [1] is glucagon-like peptide-1 (GLP-1) receptor.
Experiment [2] addresses glucagon-like peptide-2 (GLP-2) receptor.

Starred links: 1 amine or outer side, 2 acyl side, 3 side chain; linkers in the order of their positions; H or OH if unused. Non-standard residues stand in square brackets, D forms with d. Residues, ends and D or L forms follow the SMILES beside them. Groups on a side chain read outwards from the residue. No end group written: not given here. *: point of attachment. C18 diacid = O=C(O)CCCCCCCCCCCCCCCCC(=O)*; γGlu = O=C(O)[C@H](CCC(=O)[*:2])N[*:1]; AEEA = NCCOCCOCC(=O)O; Aib = CC(C)(N)C(=O)O; AEA = NCCOCC(=O)O

T1 sequence (P43220 24-463, species assumed): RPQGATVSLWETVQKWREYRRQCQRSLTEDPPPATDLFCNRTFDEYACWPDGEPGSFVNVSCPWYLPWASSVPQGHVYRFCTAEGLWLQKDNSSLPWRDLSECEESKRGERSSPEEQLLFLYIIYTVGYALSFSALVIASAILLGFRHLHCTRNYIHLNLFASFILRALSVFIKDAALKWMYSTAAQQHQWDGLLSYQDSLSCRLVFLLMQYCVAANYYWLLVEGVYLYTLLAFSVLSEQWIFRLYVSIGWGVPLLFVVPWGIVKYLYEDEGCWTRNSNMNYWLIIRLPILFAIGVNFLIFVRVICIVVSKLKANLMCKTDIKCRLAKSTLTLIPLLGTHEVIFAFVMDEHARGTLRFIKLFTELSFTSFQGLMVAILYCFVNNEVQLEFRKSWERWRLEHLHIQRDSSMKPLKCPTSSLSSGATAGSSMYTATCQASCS

On to `CC[C@H](C)[C@H](NC(=O)[C@H](Cc1ccccc1)NC(=O)[C@H](CC(=O)O)NC(=O)[C@H](CCCNC(=N)N)NC(=O)[C@H](C)NC(=O)[C@H](C)NC(=O)[C@H](CCC(N)=O)NC(=O)[C@H](CCCCNC(=O)CC[C@H](NC(=O)CCCCCCCCCCCCCCCCC(=O)O)C(=O)O)NC(=O)[C@H](CC(=O)O)NC(=O)[C@H](CC(C)C)NC(=O)[C@@H](NC(=O)[C@@H](NC(=O)[C@H](C)NC(=O)[C@H](CC(C)C)NC(=O)[C@H](CCC(=O)O)NC(=O)[C@H](CO)NC(=O)[C@@H](NC(=O)[C@H](Cc1ccccc1)NC(=O)[C@H](CO)NC(=O)CNC(=O)[C@H](CCC(=O)O)NC(=O)C(C)(C)NC(=O)[C@@H](N)Cc1c[nH]cn1)[C@@H](C)O)[C@@H](C)O)[C@@H](C)CC)C(=O)N[C@@H](C)C(=O)N[C@@H](Cc1c[nH]c2ccccc12)C(=O)N[C@@H](CC(C)C)C(=O)N[C@H](C(=O)N[C@@H](CCC(N)=O)C(=O)N[C@@H](Cc1c[nH]cn1)C(=O)N[C@@H](CCCCN)C(=O)N[C@H](C(=O)N[C@H](C(=O)N[C@@H](CC(=O)O)C(N)=O)[C@@H](C)O)[C@@H](C)CC)[C@@H](C)CC` [Compound 1, His-Aib-Glu-Gly-Ser-Phe-Thr-Ser-Glu-Leu-Ala-Thr-Ile-Leu-Asp-Lys(γGlu-octadecanedioic acid-Gln-Ala-Ala-Arg-Asp-Phe-Ile-Ala-Trp-Leu-Ile-Gln-His-Lys-Ile-Thr-Asp-NH2] (H-H[Aib]EGSFTSELATILDK([γGlu-C18 diacid])QAARDFIAWLIQHKITD-NH2), for which the values for the EC50 on GLP-1R and at GLP-2R were 0.0947 nM and 6.04 nM, respectively.
For `CC[C@H](C)[C@H](NC(=O)[C@H](Cc1ccccc1)NC(=O)[C@H](CC(=O)O)NC(=O)[C@H](CCCNC(=N)N)NC(=O)[C@H](C)NC(=O)[C@H](C)NC(=O)[C@H](CCC(N)=O)NC(=O)[C@H](CCCCNC(=O)COCCNC(=O)CC[C@H](NC(=O)CCCCCCCCCCCCCCCCC(=O)O)C(=O)O)NC(=O)[C@H](CC(=O)O)NC(=O)[C@H](CC(C)C)NC(=O)[C@@H](NC(=O)[C@@H](NC(=O)[C@H](C)NC(=O)[C@H](CC(C)C)NC(=O)[C@H](CCC(=O)O)NC(=O)[C@H](CO)NC(=O)[C@@H](NC(=O)[C@H](Cc1ccccc1)NC(=O)[C@H](CO)NC(=O)CNC(=O)[C@H](CCC(=O)O)NC(=O)C(C)(C)NC(=O)[C@@H](N)Cc1c[nH]cn1)[C@@H](C)O)[C@@H](C)O)[C@@H](C)CC)C(=O)N[C@@H](C)C(=O)N[C@@H](Cc1c[nH]c2ccccc12)C(=O)N[C@@H](CC(C)C)C(=O)N[C@H](C(=O)N[C@@H](CCC(N)=O)C(=O)N[C@@H](Cc1c[nH]cn1)C(=O)N[C@@H](CCCCN)C(=O)N[C@H](C(=O)N[C@H](C(=O)N[C@@H](CC(=O)O)C(N)=O)[C@@H](C)O)[C@@H](C)CC)[C@@H](C)CC` [Compound 2, His-Aib-Glu-Gly-Ser-Phe-Thr-Ser-Glu-Leu-Ala-Thr-Ile-Leu-Asp-Lys(PEG1CH2CO-γGlu-octadecanedioic acid)-Gln-Ala-Ala-Arg-Asp-Phe-Ile-Ala-Trp-Leu-Ile-Gln-His-Lys-Ile-Thr-Asp-NH2] (H-H[Aib]EGSFTSELATILDK([AEA-γGlu-C18 diacid])QAARDFIAWLIQHKITD-NH2; N-terminus assumed) the same measures were 0.0686 nM and 5.51 nM.

B1: Compound 3 (peptide)
peptide: H[Aib]EGSFTSELATILDK([AEEA-γGlu-C18 diacid])QAARDFIAWLIQHKITD-NH2
modifications: N-terminus assumed
SMILES: CC[C@H](C)[C@H](NC(=O)[C@H](Cc1ccccc1)NC(=O)[C@H](CC(=O)O)NC(=O)[C@H](CCCNC(=N)N)NC(=O)[C@H](C)NC(=O)[C@H](C)NC(=O)[C@H](CCC(N)=O)NC(=O)[C@H](CCCCNC(=O)COCCOCCNC(=O)CC[C@H](NC(=O)CCCCCCCCCCCCCCCCC(=O)O)C(=O)O)NC(=O)[C@H](CC(=O)O)NC(=O)[C@H](CC(C)C)NC(=O)[C@@H](NC(=O)[C@@H](NC(=O)[C@H](C)NC(=O)[C@H](CC(C)C)NC(=O)[C@H](CCC(=O)O)NC(=O)[C@H](CO)NC(=O)[C@@H](NC(=O)[C@H](Cc1ccccc1)NC(=O)[C@H](CO)NC(=O)CNC(=O)[C@H](CCC(=O)O)NC(=O)C(C)(C)NC(=O)[C@@H](N)Cc1c[nH]cn1)[C@@H](C)O)[C@@H](C)O)[C@@H](C)CC)C(=O)N[C@@H](C)C(=O)N[C@@H](Cc1c[nH]c2ccccc12)C(=O)N[C@@H](CC(C)C)C(=O)N[C@H](C(=O)N[C@@H](CCC(N)=O)C(=O)N[C@@H](Cc1c[nH]cn1)C(=O)N[C@@H](CCCCN)C(=O)N[C@H](C(=O)N[C@H](C(=O)N[C@@H](CC(=O)O)C(N)=O)[C@@H](C)O)[C@@H](C)CC)[C@@H](C)CC
Regarding B1, the GLP-1 activity [EC50 (pmol)] in experiment [1] came to 60.1 pmol. This molecule also yielded a GLP-2 activity [EC50 (nmol)] in experiment [2] of 4.7 nmol.

B2: Compound 2 (peptide)
peptide: H[Aib]EGSFTSELATILDK([PEG1CH2CO-γGlu-C18 diacid])QAARDFIAWLIQHKITD-NH2
In experiment [1], B2 registered a GLP-1 activity [EC50 (pmol)] of 68.7 pmol. Moreover, in experiment [2], the GLP-2 activity [EC50 (nmol)] came out at 5.51 nmol.

B3: Compound 4 (peptide)
peptide: H[Aib]EGSFTSELATILDK([PEG3CH2CO-γGlu-C18 diacid])QAARDFIAWLIQHKITD-NH2
Regarding B3, the GLP-1 activity [EC50 (pmol)] in experiment [1] turned out to be 60 pmol. The same molecule had a GLP-2 activity [EC50 (nmol)] in experiment [2] of 4.33 nmol.

B4: Compound 6 (peptide)
peptide: H[Aib]EGSFTSELATILDK([PEG5CH2CO-γGlu-C18 diacid])QAARDFIAWLIQHKITD-NH2
In the case of B4, in experiment [1], the GLP-1 activity [EC50 (pmol)] stood at 79.5 pmol. Moreover, in experiment [2], the GLP-2 activity [EC50 (nmol)] stood at 4.62 nmol.

B5: Compound 5 (peptide)
peptide: H[Aib]EGSFTSELATILDK([PEG4CH2CO-γGlu-C18 diacid])QAARDFIAWLIQHKITD-NH2
The molecule B5 gave a GLP-1 activity [EC50 (pmol)] in experiment [1] of 72.8 pmol. Moreover, the GLP-2 activity [EC50 (nmol)] in experiment [2] stood at 5.54 nmol.

B6: Compound 1 (peptide)
peptide: H[Aib]EGSFTSELATILDK([γGlu-C18 diacid])QAARDFIAWLIQHKITD-NH2
modifications: N-terminus assumed
SMILES: CC[C@H](C)[C@H](NC(=O)[C@H](Cc1ccccc1)NC(=O)[C@H](CC(=O)O)NC(=O)[C@H](CCCNC(=N)N)NC(=O)[C@H](C)NC(=O)[C@H](C)NC(=O)[C@H](CCC(N)=O)NC(=O)[C@H](CCCCNC(=O)CC[C@H](NC(=O)CCCCCCCCCCCCCCCCC(=O)O)C(=O)O)NC(=O)[C@H](CC(=O)O)NC(=O)[C@H](CC(C)C)NC(=O)[C@@H](NC(=O)[C@@H](NC(=O)[C@H](C)NC(=O)[C@H](CC(C)C)NC(=O)[C@H](CCC(=O)O)NC(=O)[C@H](CO)NC(=O)[C@@H](NC(=O)[C@H](Cc1ccccc1)NC(=O)[C@H](CO)NC(=O)CNC(=O)[C@H](CCC(=O)O)NC(=O)C(C)(C)NC(=O)[C@@H](N)Cc1c[nH]cn1)[C@@H](C)O)[C@@H](C)O)[C@@H](C)CC)C(=O)N[C@@H](C)C(=O)N[C@@H](Cc1c[nH]c2ccccc12)C(=O)N[C@@H](CC(C)C)C(=O)N[C@H](C(=O)N[C@@H](CCC(N)=O)C(=O)N[C@@H](Cc1c[nH]cn1)C(=O)N[C@@H](CCCCN)C(=O)N[C@H](C(=O)N[C@H](C(=O)N[C@@H](CC(=O)O)C(N)=O)[C@@H](C)O)[C@@H](C)CC)[C@@H](C)CC
Take B6: in experiment [1], the GLP-1 activity [EC50 (pmol)] is 94.7 pmol. This molecule also had a GLP-2 activity [EC50 (nmol)] in experiment [2] of 6.04 nmol.

The values above are taken from patent publication US20250154226A1, “LONG-ACTING GLP-1/GLP-2 DUAL AGONIST COMPOUND” (CHENGDU AODA BIOTECHNOLOGY CO., LTD, priority 2022, published 2025).
